Measured values as given in publication PMC3457934.

Biological target: in vitro assembled HIV-1 CA-NC complexes (HIV-1)
Assay: co-sedimentation; 5 µl in vitro assembled CA-NC particles incubated with 200 µl 293T cell lysate (capsid-binding buffer plus 1X PBS) at room temperature for 1 hour; spun through a 70% sucrose cushion at 100,000×g for 1 hour at 4°C; pellet (BOUND) and INPUT analysed by Western blotting (anti-GFP, anti-HA, anti-p24); fluorescent quantification of three independent experiments

Row | Substance | ratio bound/input
1 | GFP-RanBP2-ΔCyp deletion mutant (from UniProt P49792 1-2786) (domain or fragment) | 0.39
2 | GFP-RanBP2 (full-length Nup358/RanBP2 fused to GFP) (from UniProt P49792 1-3224) (natural protein) | 1
